Patent US9939430B2, “Platelet analysis” (Dublin City University, priority 2008, dated 2018)
“Also recorded” adds a separate entry of the source.

Assays:
[1] = target: T1, platelet fibrinogen receptor αIIbβ3 (GPIIb/IIIa) (Homo sapiens, UniProt P05106+P08514); assay: Platelet adhesion to fibrinogen patterned substrate, whole blood preincubated with abciximab in vitro; format: cell-based
T1 construct: incubation of whole blood with different doses of abciximab (Reopro®); endogenous in cells; host or cells: platelets in donor whole blood
From the text: The single platelet counting method enables high resolution and reproducible platelet adhesion and function assays in contrast with fluorescence measurements of platelet adhesion. The drug abciximab inhibits platelet adhesion to fibrinogen. […] We compare this platelet adhesion quantification method with a classical method which consists on the measure of the fluorescence intensity originated by the platelets adhering to the surface (which have been fluorescently labelled after adhesion took place). […] Subsequently the samples were washed with buffers, fixed and labelled using platelet specific antibodies fluorescently labelled. After the samples were mounted on microscopy glass slides and imaged. (i)-(iii) show single platelet arrays formed on 6 micron fibrinogen dots array; (iv)-(vi) show platelets adhering to 12 micron fibrinogen dots array; (vii)-(ix) show platelets adhering to 24 micron fibrinogen dots array. […] It is more difficult to quantify the number of platelets adhering to the 12 or 24 micron fibrinogen dots. The effect of the drug in platelet adhesion was quantified using two methods, single platelet counting method, and fluorescence method. (B) Graphs showing the fluorescence intensity measured on samples incubated with blood samples preincubated with different doses of abxicimab (x axes units: abciximab concentration (g/mL); y axes units: fluorescence, arbitrary units). (C) Graph showing the percentage of filled (occupied by platelets) dots on 6 microns fibrinogen dots array on samples incubated with blood samples preincubated with different doses of abxicimab (x axes units: abciximab concentration (g/mL); y axes units: percentage of 6 micron fibrinogen dots occupied by platelets).
In parallel flow cytometry is used to quantify the inhibition of fibrinogen-platelet binding resulting from incubation of whole blood with different doses of abciximab (Reopro®). To perform the measurements by flow cytometry, platelets were pre-activated with thrombin-receptor-activating peptide. […]

[2] = target: T2, GP Ilb/IIIa receptor (Homo sapiens, UniProt P05106+P08514); assay: Platelet adhesion on fibrinogen patterned substrate in PCI patients before and after Reopro administration; format: in vivo; settings: for platelet adhesion after administration: 0.25 mg/kg dose during PCI
T2 construct: blood samples from 10 cardiovascular patients undergoing Percutaneous Coronary Interventions (PCI); endogenous in cells; host or cells: platelets in blood of PCI patients
Experimental: The above in-vitro results were validated in a small-scale, targeted clinical study conducted at the Clinical Research Centre in Beaumont Hospital. The same protein patterned substrate was tested with blood samples from 10 cardiovascular patients undergoing Percutaneous Coronary Interventions (PCI). Three patients who received a 0.25 mg/kg dose of Reopro® during the procedure had their platelet adhesion measured using the method of the present invention before Reopro® administration (image i of FIG. 10), 10 minutes after Reopro® administration (image ii of FIG. 10), and between 20 and 24 hours after Reopro® administration (image iii of FIG. 10).
Multiple fluorescent dots on the grid indicates presence of adhering platelets (i).

[3] = tested on: platelets; assay: Platelet adhesion from whole blood on protein patterned surfaces (percentage of filled dots); format: cell-based, human; settings: 2 μm dots array, four normal donors
Experimental: For the fabrication of protein patterns, specific platelet adhesive proteins or platelet antibodies were directly patterned on bare glass substrates by microcontact printing (FIG. 1a). After protein patterning the rest of the glass substrate was blocked with bovine serum albumin (BSA) to avoid non specific capture in non selected areas. Characterization of the protein pattern was carried out by immunofluorescence to assure good homogenous coverage of the protein pattern FIG. 14(ii) along all the patterned area. Samples were incubated with 1 mL of citrated or hirudinised whole blood for a maximum of 30 minutes.
The same blood sample exposed to a number of identical substrates gave small deviations; lower than 10%, in the platelet adhesion (FIG. 4b). We have quantified the platelet adhesion from whole blood on fibrinogen, vWF and anti-CD42b surfaces for four different normal donors. […]
The probability that a platelet is captured on a single spot depends on the probability that the platelet touches the protein spot, and on the binding affinity of the platelet for the protein matrix. […] We calculated the mean platelet adhesion on antibody, fibrinogen and vWF patterned surfaces on 2 μm and 6 μm dots arrays. […] A mean platelet adhesion of 45%, 10% and 15% were calculated for the antibody, the fibrinogen and the vWF surfaces, respectively. […]

Row | Substance | platelet adhesion to the fibrinogen substrate after abciximab treatment ([1]; blood preincubated with abciximab (20 μg/mL), 2 and 6 μm dot arrays) | inhibition of platelet adhesion in CVD patients compared to the diabetic patients ([1]; in vitro, 1.5 μg/ml Reopro, CVD patients on aspirin and clopidogrel vs type 2 diabetes patients on aspirin) | Reopro's effects on platelet adhesion across population groups ([1]; in vitro, 1.5 μg/ml Reopro, normal donors, CVD patients, diabetic patients) | platelet adhesion after administration ([2]; 20-24 hours after administration) | platelet adhesion after administration ([2]; 10 minutes after administration, listed as Reopro®, 0.25 mg/kg) | platelet adhesion after administration (fluorescence images, one subject) ([2]; 21 h after administration) | mean platelet adhesion [3] [%]
1 | abciximab | do not adhere to the fibrinogen substrate | increased inhibition | effects appear greater in CVD patients than in normal or diabetic patients | increasing adhesion | low adhesion; also recorded: limited platelet adhesion | recovery of adhesiveness | –
2 | fibrinogen | – | – | – | – | – | – | 10
3 | von Willebrand factor [vWF] | – | – | – | – | – | – | 15
